Results from patent US7501267B2, “Gene sequence of L-rhamnose isomerase having new catalytic function and use thereof” (Rare Sugar Production Technical Research Laboratories, LLC, priority 2003, dated 2009).
Where two headings read alike, the source gives them in different places.

How the values were obtained:
[1] = system: L-rhamnose isomerase produced by Pseudomonas stutzerii LL172; assay: Effect of a chelating agent or metal ion on L-rhamnose isomerase activity; type: biochemical; details: for Effect of a chelating agent on activity: coexisting during the measurement of activity
[2] = system: L-rhamnose isomerase produced by Pseudomonas stutzerii LL172; details: Non-Patent Document 3, cited from earlier work; for Effect of a chelating agent on activity: coexisting during the measurement of activity
[3] = substrate: OC1OC[C@@H](O)[C@@H](O)[C@H]1O; assay: cells, lysate or membranes named; details: other: purified enzyme without immobilizing; pH 7.0
[4] = substrate: OC1OC[C@H](O)[C@@H](O)[C@H]1O; assay: cells, lysate or membranes named; details: other: purified enzyme without immobilizing; pH 7.0
[5] = substrate: OC1OC[C@H](O)[C@H](O)[C@H]1O; assay: cells, lysate or membranes named; details: other: purified enzyme without immobilizing; pH 7.0
[6] = cited from earlier work
[7] = substrate: C[C@@H]1OC(O)[C@H](O)[C@H](O)[C@H]1O; assay: Km and Vmax of purified L-rhamnose isomerase for a variety of substrates; type: biochemical, Pseudomonas stutzeri; details: other: purified enzyme without immobilizing; pH 7.0
Method: (§1) An enzyme was obtained with the same conditions as those of Example 5. The measurement of Km and Vmax was carried out using the enzyme without immobilizing.
(§2) The cells were washed twice with 0.05 M sodium phosphate buffer (pH 7.0). The washed cells were ground with alumina powder and subjected to centrifugation to remove insoluble substances together with alumina powder, whereby a crude enzyme solution was obtained. The obtained crude enzyme solution was subjected to affinity chromatography using an Ni-NTA column to purify the enzyme, whereby a pure enzyme was obtained. After the enzyme was dialyzed against ultrapure water, lyophilization was carried out, whereby pure powder enzyme was obtained. By allowing 20 mg of the enzyme to be adsorbed on 1 g of Chitopearl resin, immobilized enzyme was prepared.

[8] = substrate: OC[C@@H]1OC(O)[C@H](O)[C@H](O)[C@H]1O; assay: as above; type: biochemical, Pseudomonas stutzeri; details: other: purified enzyme without immobilizing; pH 7.0
Method: as §1, §2

[9] = substrate: OC[C@H]1OC(O)[C@@H](O)[C@H](O)[C@@H]1O; assay: as above; type: biochemical, Pseudomonas stutzeri; details: other: purified enzyme without immobilizing; pH 7.0
Method: as §1, §2

[10] = substrate: OC[C@H]1OC(O)[C@H](O)[C@H](O)[C@@H]1O; assay: as above; type: biochemical, Pseudomonas stutzeri; details: other: purified enzyme without immobilizing; pH 7.0
Method: as §1, §2

## [Co+2] [cobalt ion]
[1]; 1 mM
  Activity inhibited by metal ion: About 30%
[2]; 1 mM
  Activity inhibited by metal ion: About 30%

## O=C(O)CN(CCN(CC(=O)O)CC(=O)O)CC(=O)O [EDTA]
[1]
  Effect of a chelating agent on activity: hardly inhibited
[2]
  Effect of a chelating agent on activity: hardly inhibited

## O=C(O)CN(CCOCCOCCN(CC(=O)O)CC(=O)O)CC(=O)O [EGTA]
[1]
  Effect of a chelating agent on activity: hardly inhibited
[2]
  Effect of a chelating agent on activity: hardly inhibited

B1: L-rhamnose isomerase derived from P. stutzeri (Stutzerimonas stutzeri) (protein)
chain: MAEFRIAQDVVARENDRRASALKEDYEALGANLARRGVDIEAVTAKVEKFFVAVPSWGVGTGGTRFARFPGTGEPRGIFDKLDDCAVIQQLTRATPNVSLHIPWDKADPKELKARGDALGLGFDAMNSNTFSDAPGQAHSYKYGSLSHTDAATRAQAVEHNLECIEIGKAIGSKALTVWIGDGSNFPGQSNFTRAFERYLSAMAEIYKGLPDDWKLFSEHKMYEPAFYSTVVQDWGTNYLIAQTLGPKAQCLVDLGHHAPNTNIEMIVARLIQFGKLGGFHFNDSKYGDDDLDAGAIEPYRLFLVFNELVDAEARGVKGFHPAHMIDQSHNVTDPIESLINSANEIRRAYAQALLVDRAALSGYQEDNDALMATETLKRAYRTDVEPILAEARRRTGGAVDPVATYRASGYRARVAAERPASVAGGGGII
[3]
  Km: 38.5 mM
  Vmax: 21.4 µmol/min/mg
[4]
  Km: 61.7 mM
  Vmax: 123 µmol/min/mg
[5]
  Km: 2.35 mM
  Vmax: 0.061 µmol/min/mg
other
  Optimal pH: 9.0
  Optimal temperature: 60 °C
10 min
  Temperature stability, activity remaining: ≥ 90%
[6]; 10 min
  Temperature stability, activity remaining: ≥ 90%
[6]; Non-Patent Document 3
  Optimal pH: 9.0
  Optimal temperature: 60 °C
[7]
  Km: 11.9 mM
  Vmax: 238 µmol/min/mg
[8]
  Km: 55.5 mM
  Vmax: 139 µmol/min/mg
[9]
  Km: 71 mM
  Vmax: 0.01 µmol/min/mg
[10]
  Km: 42 mM
  Vmax: 6.76 µmol/min/mg
